In paper PMC6237750:

B1: NMR substrate template T (20) (dsDNA)
DNA 1: CGACCGACTGCGCATCAGCC
DNA 2: GGCTGATGCGC
DNA 3: GTCGGTCG
B2: X-ray substrate template A (16) (dsDNA)
DNA 1: CCGACAGCGCATCAGC
DNA 2: GCTGATGCGC
DNA 3: GTCGG

Assays:
[1] = target: T1, DNA polymerase beta I260Q (NMR, crystal) (UniProt P06746 1-335, I260Q); experiment: NMR; binary, 10 mM MgCl2; NMR: 50 mM HEPES, 100 mM KCl, 2 mM DTT, 10 mM MgCl2, 10% D2O, pH 7.4; crystals: 18-20% PEG 3350, 50 mM HEPES pH 7.5, 175-250 mM Na acetate, 2 mM TCEP, 1% tert-b
[2] = target: T1, DNA polymerase beta I260Q (NMR, crystal); experiment: X-ray crystallography; binary; NaI soak; NMR: 50 mM HEPES, 100 mM KCl, 2 mM DTT, 10 mM MgCl2, 10% D2O, pH 7.4; crystals: 18-20% PEG 3350, 50 mM HEPES pH 7.5, 175-250 mM Na acetate, 2 mM TCEP, 1% tert-b

| Binder | binding result [1] | binding result [2] |
| --- | --- | --- |
| B1 | binds | – |
| B2 | – | binds |
